Results: patent US7901902B2, “Methods and compositions for identifying a cellular immune response against prostate cancer” (BioSante Pharmaceuticals, Inc., priority 2006, dated 2011)

Each sequence was assayed against HLA-A2 (Homo sapiens, UniProt P04439, D140Y/D185E/D98H/E176V/E277Q/G131W/G231S/I119V/I121R/I166T/I218V/L300P/L318F/N151K/N90K/P208A/P217A/Q86G/Q94H/R138H/R169H/T345S) (assay: HLA-A2 peptide binding assay on T2 cells (fluorescence index, flow cytometry)). Details: summary of Tables 2 and 3.

Row | upregulation of HLA-A2 expression (in words) | Sequence
1 | greatest upregulation | GLAPLEVRV (Filamin-B peptides) [Filamin B peptide # 3, 9-mer peptide selected from the filamin-B polypeptide]
2 | moderate upregulation | GLVEPVNMV (Filamin-B peptides) [Filamin B peptide # 2, 9-mer peptide selected from the filamin-B polypeptide]
3 | moderate upregulation | GQGDVMVFV (Filamin-B peptides) [Filamin B peptide # 6, 9-mer peptide selected from the filamin-B polypeptide]
4 | upregulated HLA-A2 weakly | KLILGLVWT (Filamin-B peptides) [Filamin B peptide # 7, 9-mer peptide selected from the filamin-B polypeptide]
5 | greatest upregulation | LILGLVWTL (Filamin-B peptides) [Filamin B peptide # 1, 9-mer peptide selected from the filamin-B polypeptide]
6 | greatest upregulation | RLIALLEVL (Filamin-B peptides) [Filamin B peptide # 5, 9-mer peptide selected from the filamin-B polypeptide]
7 | moderate upregulation | SLQESGLKV (Filamin-B peptides) [Filamin B peptide # 4, 9-mer peptide selected from the filamin-B polypeptide]
